{
  "source": "patent US20170362293A1",
  "about": "(GENEXINE, published 2017)",
  "molecular_target": "GLP-2R",
  "experiment": "cell-based or functional assay",
  "data": [
    {"binder": "GLP-2-hyFc9 fusion polypeptide (Fc fusion) HGDGSFSDEMNTILDNLAARDFINWLIQTKITDAKATTAPATTRNTGRGGEEKKKEKEKEEQEERETKTPECPSHTQPLGVFLFPPKPKDTLMISRTPEVTCVVVDVSQEDPEVQFNWYVDGVEVHNAKTKPREEQFNSTYRVVSVLTVLHQDWLNGKEYKCKVSNKGLPSSIEKTISKAKGQPREPQVYTLPPSQEEMTKNQVSLTCLVKGFYPSDIAVEWESNGQPENNYKTTPPVLDSDGSFFLYSRLTVDKSRWQEGNVFSCSVMHEALHNHYTQKSLSLSLGK", "values": [
      {"measurement": "membrane depolarization induced by increased intracellular cAMP in GLP-2R-expressing 293 cells; activity relative to GLP-2-2G peptide set at 100%", "result": 98, "unit": "%"}
    ]}
  ]
}
